Reference: publication PMC10631449 (Journal of medicinal chemistry, 2023)
Bridge positions count the residues as written; N and C are the ends. Square brackets hold non-standard residues; d marks the D form. Peptide text beside a SMILES is read from it. dPhe(4-I) = N[C@H](Cc1ccc(I)cc1)C(=O)O; 2Nal = N[C@@H](Cc1ccc2ccccc2c1)C(=O)O; hArg = N=C(N)NCCCC[C@H](N)C(=O)O; Cit = NC(=O)NCCC[C@H](N)C(=O)O; Nle = CCCC[C@H](N)C(=O)O; Orn = NCCC[C@H](N)C(=O)O; Dab = NCC[C@H](N)C(=O)O; Dap = NC[C@H](N)C(=O)O

Assays:
mMC3R = mMC3R (Mus musculus, UniProt P33033); assay: AlphaScreen cAMP agonist assay, HEK293 cells stably expressing mMC3R; format: cell-based
Sequence of mMC3R (P33033 whole entry): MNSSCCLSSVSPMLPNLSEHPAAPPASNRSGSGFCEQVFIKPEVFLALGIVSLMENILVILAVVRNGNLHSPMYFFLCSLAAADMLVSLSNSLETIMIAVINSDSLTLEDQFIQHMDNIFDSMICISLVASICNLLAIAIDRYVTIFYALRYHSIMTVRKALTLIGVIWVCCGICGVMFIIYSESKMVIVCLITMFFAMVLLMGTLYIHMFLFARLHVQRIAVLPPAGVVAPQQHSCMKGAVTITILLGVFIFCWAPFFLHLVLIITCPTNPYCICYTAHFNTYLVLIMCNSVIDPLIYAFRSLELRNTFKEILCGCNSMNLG

[1] = Body weight after intrathecal; format: in vivo; settings: t = 0, 24 and 48 h; 10 or 15 nmol/mouse IT
mMC5R = mMC5R (Mus musculus, UniProt P41149); settings: read-out: antagonist Ki mMC5R; cited from earlier work
Sequence of mMC5R (P41149 whole entry): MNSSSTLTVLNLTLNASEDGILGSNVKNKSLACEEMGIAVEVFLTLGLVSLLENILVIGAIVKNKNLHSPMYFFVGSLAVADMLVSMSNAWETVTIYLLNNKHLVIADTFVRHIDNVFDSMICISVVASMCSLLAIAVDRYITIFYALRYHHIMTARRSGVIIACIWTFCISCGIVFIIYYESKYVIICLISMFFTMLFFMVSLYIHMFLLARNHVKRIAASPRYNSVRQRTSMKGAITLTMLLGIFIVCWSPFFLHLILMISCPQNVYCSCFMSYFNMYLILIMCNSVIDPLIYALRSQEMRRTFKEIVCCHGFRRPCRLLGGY

MC1R = MC1R antagonist; cited from earlier work
[2] = biological target: mouse melanocortin 1 receptor (mouse) (UniProt Q01727)
Sequence of mouse melanocortin 1 receptor (mouse) (Q01727 whole entry): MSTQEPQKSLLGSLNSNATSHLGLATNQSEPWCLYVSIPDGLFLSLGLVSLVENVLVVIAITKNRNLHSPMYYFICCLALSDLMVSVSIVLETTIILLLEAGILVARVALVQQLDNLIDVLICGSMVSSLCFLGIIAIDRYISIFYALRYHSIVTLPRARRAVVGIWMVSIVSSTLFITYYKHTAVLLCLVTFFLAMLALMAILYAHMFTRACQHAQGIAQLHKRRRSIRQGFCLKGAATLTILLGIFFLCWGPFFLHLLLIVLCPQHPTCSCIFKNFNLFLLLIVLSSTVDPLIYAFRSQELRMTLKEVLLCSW

[3] = biological target: mouse melanocortin 3 receptor (mouse) (UniProt P33033)
Sequence of mouse melanocortin 3 receptor (mouse) (P33033 whole entry): as the sequence (P33033 whole entry) above

[4] = biological target: mouse melanocortin 4 receptor (mouse) (UniProt P56450)
Sequence of mouse melanocortin 4 receptor (mouse) (P56450 whole entry): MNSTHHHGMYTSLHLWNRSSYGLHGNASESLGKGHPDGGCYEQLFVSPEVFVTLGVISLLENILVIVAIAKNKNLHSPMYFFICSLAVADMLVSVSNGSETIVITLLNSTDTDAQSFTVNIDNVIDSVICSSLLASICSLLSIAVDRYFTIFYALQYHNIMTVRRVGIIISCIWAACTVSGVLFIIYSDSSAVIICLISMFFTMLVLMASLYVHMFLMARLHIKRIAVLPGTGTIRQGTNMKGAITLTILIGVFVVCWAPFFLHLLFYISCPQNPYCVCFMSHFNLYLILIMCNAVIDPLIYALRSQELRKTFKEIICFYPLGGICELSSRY

[5] = biological target: mouse melanocortin 5 receptor (mouse) (UniProt P41149)
Sequence of mouse melanocortin 5 receptor (mouse) (P41149 whole entry): as the sequence (P41149 whole entry) above

mMC1R = mMC1R (Mus musculus, UniProt Q01727); settings: cited from earlier work
Sequence of mMC1R (Q01727 whole entry): as the sequence (Q01727 whole entry) above

K5-noggin mice = settings: administered intracutaneously; cited from earlier work
hMC1R = settings: read-out: antagonist Ki hMC1R; competitive antagonist; cited from earlier work

Row | agonist EC50, cAMP AlphaScreen on HEK293 cells expressing the receptor [3] | agonist EC50, cAMP AlphaScreen on HEK293 cells expressing the receptor [4] | agonist EC50, cAMP AlphaScreen on HEK293 cells expressing the receptor [5] | Compound | also measured
1 | – | – | – | CC(=O)N[C@H](Cc1ccc(I)cc1)C(=O)N[C@@H](CCCNC(=N)N)C(=O)N[C@@H](Cc1ccc2ccccc2c1)C(=O)N[C@@H](Cc1c[nH]cn1)C(N)=O [Peptide 12, Ac-DPhe(pI)-Arg-Nal(2’)-His-NH2] (Ac-[dPhe(4-I)]R[2Nal]H-NH2) | percent maximal stimulatory response (compared to NDP-MSH) observed at 100 μM, mMC3R (mMC3R): 35% @ 100 μM
2 | – | – | – | CC(=O)N[C@H](Cc1ccc(I)cc1)C(=O)N[C@@H](CCCNC(=N)N)C(=O)N[C@@H](Cc1ccc2ccccc2c1)C(=O)N[C@@H](CCCN)C(N)=O [Peptide 14, Ac-DPhe(pI)-Arg-Nal(2’)-Orn-NH2] (Ac-[dPhe(4-I)]R[2Nal][Orn]-NH2) | body weights compared to vehicle [1]: not statistically significantly different
3 | – | – | – | Ac-Nle-c[Asp-(1-Me)His-DNal(2’)-Arg-DNal(2’)-Lys]-NH2 | Ki (mMC5R): 0.063 µM
4 | – | – | – | Ac-[Nle]DW[dF][Nle]WK-NH2 | pA2 in the frog skin assay (MC1R): 8.4
5 | > 100 µM | > 100 µM | > 100 µM | Ac-[dPhe(4-I)]E[2Nal]R-NH2 | agonist EC50, cAMP AlphaScreen on HEK293 cells expressing the receptor [2]: > 100 µM
6 | > 100 µM | > 100 µM | > 100 µM | Ac-[dPhe(4-I)]H[2Nal]R-NH2 | –
7 | > 100 µM | > 100 µM | > 100 µM | Ac-[dPhe(4-I)]K[2Nal]R-NH2 | –
8 | > 100 µM | > 100 µM | > 100 µM | Ac-[dPhe(4-I)]R[2Nal]E-NH2 | agonist EC50, cAMP AlphaScreen on HEK293 cells expressing the receptor [2]: > 100 µM
9 | – | > 100 µM | > 100 µM | Ac-[dPhe(4-I)]R[2Nal]H-NH2 | –
10 | > 100 µM | > 100 µM | > 100 µM | Ac-[dPhe(4-I)]R[2Nal]K-NH2 | –
11 | – | – | > 100 µM | Ac-[dPhe(4-I)]R[2Nal]R-NH2 | –
12 | > 100 µM | > 100 µM | > 100 µM | Ac-[dPhe(4-I)]R[2Nal][Cit]-NH2 | agonist EC50, cAMP AlphaScreen on HEK293 cells expressing the receptor [2]: > 100 µM
13 | > 100 µM | > 100 µM | > 100 µM | Ac-[dPhe(4-I)]R[2Nal][Dab]-NH2 | –
14 | > 100 µM | > 100 µM | > 100 µM | Ac-[dPhe(4-I)]R[2Nal][Dap]-NH2 | –
15 | > 100 µM | > 100 µM | > 100 µM | Ac-[dPhe(4-I)]R[2Nal][Orn]-NH2 | –
16 | > 100 µM | > 100 µM | > 100 µM | Ac-[dPhe(4-I)]R[2Nal][dK]-NH2 | agonist EC50, cAMP AlphaScreen on HEK293 cells expressing the receptor [2]: > 100 µM
17 | > 100 µM | > 100 µM | > 100 µM | Ac-[dPhe(4-I)]R[2Nal][dR]-NH2 | agonist EC50, cAMP AlphaScreen on HEK293 cells expressing the receptor [2]: > 100 µM
18 | > 100 µM | > 100 µM | > 100 µM | Ac-[dPhe(4-I)]R[2Nal][hArg]-NH2 | –
19 | > 100 µM | > 100 µM | > 100 µM | Ac-[dPhe(4-I)][Cit][2Nal]R-NH2 | –
20 | > 100 µM | > 100 µM | > 100 µM | Ac-[dPhe(4-I)][dK][2Nal]R-NH2 | agonist EC50, cAMP AlphaScreen on HEK293 cells expressing the receptor [2]: > 100 µM
21 | – | – | – | H-YERFFNAF[Dap]Y-NH2 (lactam 2-9) | pA2 mMC1R (mMC1R): 5.92; Ki (mMC1R; read-out: antagonist Ki mMC1R): 1.2 µM; coloration of K5-noggin mice (K5-noggin mice): restored wild-type coloration
22 | – | – | – | c[Gly-Cpg-DNal(2’)-Arg-Trp-Glu]-Val-Val-Gly-NH2 | Ki (hMC1R): 0.053 µM
